Test results: the Immune Epitope Database (IEDB)

Experiments:
Experiment in all cases: IEDB peptide-MHC binding, purified MHC/competitive/radioactivity; ≥ and ≤ were set here for values at or beyond the usual limits of such assays
Conditions in all cases: source organism: Homo sapiens
HLA-A*11:01 = molecular target: HLA-A*11:01
HLA-A*03:01 = molecular target: HLA-A*03:01
HLA-B*07:02 = molecular target: HLA-B*07:02

| Sequence | IC50 (HLA-A*11:01) [nM] | IC50 (HLA-A*03:01) [nM] | IC50 (HLA-B*07:02) [nM] |
| --- | --- | --- | --- |
| GTQCALTRR | 31.3 | – | – |
| HTMEVTVYHR | – | 179 | – |
| LIGCWYCRRR | – | 179 | – |
| LPHSSSHWL | – | – | 17.2 |
| SSSHWLRLPR | 45.5 | – | – |
| VVLASLIYRR | 80.6 | 161 | – |
| YMVPFIPLYR | 38.5 | 26.3 | – |

The remaining sequences from weak to strong by IC50 (HLA-A*11:01), led by results:

| IC50 (HLA-A*11:01) [nM] | IC50 (HLA-A*03:01) [nM] | IC50 (HLA-B*07:02) [nM] | Sequence |
| --- | --- | --- | --- |
| 16.1 | – | – | QTSAGHFPR |
| 4.6 | 45.5 | – | SIFEQWLRR |
| 3.6 | 17.9 | – | VVLASLIYR |
| 3.5 | – | – | AVVLASLIYR |
